The numbers were not newly measured in patent publication US7186797B2, “Polypeptide conjugates with extended circulating half-lives” (Epix Pharmaceuticals, Inc., priority 2001, dated 2007), which cites them from elsewhere.

B1: interferon γ: commercially important polypeptide-based drug currently in use (protein, UniProt P01579 24-161, looked up)
Interferon gamma: QDPYVKEAENLKKYFNAGHSDVADNGTLFLGILKNWKEESDRKIMQSQIVSFYFKLFKNFKDDQSIQKSVETIKEDMNVKFFNSNKKKRDDFEKLTNYSVTDLNVQRKAIHELIQVMAELSPAAKTGKRKRSQMLFRG
B2: granulocyte colony stimulating factor: commercially important polypeptide-based drug currently in use (protein, UniProt P09919 31-207, looked up)
Granulocyte …: TPLGPASSLPQSFLLKCLEQVRKIQGDGAALQEKLVSECATYKLCHPEELVLLGHSLGIPWAPLSSCPSQALQLAGCLSQLHSGLFLYQGLLQALEGISPELGPTLDTLQLDVADFATTIWQQMEELGMAPALQPTQGAMPAFASAFQRRAGGVLVASHLQSFLEVSYRVLRHLAQP

For this data set the following is noted: unconjugated polypeptide drug, background statement.
As to “Erythropoietin: commercially important polypeptide-based drug currently in use”, the t1/2 was 180 min. As to “granulocyte macrophage colony stimulating factor: commercially important polypeptide-based drug currently in use”, the t1/2 is 120 min. In the case of “human growth hormone: commercially important polypeptide-based drug currently in use”, the t1/2 is 30 min.

For relaxin, the t1/2 is 30 min.

streptokinase: the t1/2 is on record as 80 min. Take “tissue plasminogen activator: commercially important polypeptide-based drug currently in use”: the t1/2 was 55 min. Regarding tumor necrosis factor, the t1/2 was 18 min. On to urokinase, for which the t1/2 is on record as 50 min. Turning to B1, the t1/2 is reported as 30 min. As for B2, the t1/2 is recorded as 120 min.
